B1: TPR t1 (parent)
chain: GACCAAUCUGCCCUCAGAGCUCGAGAACAUCUUCGGAUGCAGAGGAGGCAGGCUUCGGUGGCGCGAUAGCGCCAACGUCCUCAACCUCCAAUGCAUCCCACCACAUGAUGAUGCCUGAAGAGCCUUGGUUUUUUG

Variants of: B1
Assay: polymerase ribozyme fitness, log enrichment relative to wild type (log ratio); higher = more active; in vitro selection for triplet polymerase activity
In short: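 To select mutant libraries of each subunit of a heterodimeric triplet polymerase ribozyme, built by PCR and transcribed, each was annealed with a biotinylated primer, partner subunit and triplets, then incubated frozen at −7 °C. Extended constructs were gel-excised, captured on streptavidin beads and amplified by RT-PCR, in one round carried out in triplicate. Illumina sequencing of input and output libraries kept genotypes with ≥10 input reads and ≥1 read per output. Fitness is the base-2 logarithm of genotype enrichment relative to wild-type enrichment, from inverse-variance-weighted replicate averages.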

Variant	polymerase ribozyme fitness (log ratio)
C3A C8G G63C A95C G117A G128U	-0.17
C3A G36A G71C C123G	-1.87
C3A U87A C94U U106G C115U G120C	-5.04
C3G A111C	-1.69
A2U G10C G71U A121C	-1.06
C3A U33A C86A U112G	-6.24
C3U A74U C101U G113A C123G	-1.18
A2U C4U G39C G44U G61A A83G C89U A121U	-2.89
C3A C4U A46U C114U	-4.9
C3G G128U	-1.24
C3A U106G G113U	-6.02
A2U C11U C79A C123A	-0.946
C3U A74U U106G G110A A119G	-4.14
C3G C4A C40U C53A C70U C86A C98U U112A	-5.43
A2U U54C U112G G113A U133A	-2.96
C3U A16G A90G U112G U116C	0.876
A2U C40U C115A A121U	0.0194
C3A C22G A37G G71A A111G	-6.05
C3A G51C G69U	-2.31
A2U U9G A50G C62U C98A G120C	-5.94
C3G C70U	-2.07

Variant	polymerase ribozyme fitness (log ratio)
C3G C72A C94G C124A	-1.46
C3A A5U G60C A91U G127A	-2.45
C3G G42U C99U C115G A121G	-5.96
C3A G52A C70U C104A C124G	-2.12
C3A C123G	0.176
C3A C123A	-1.18
C3A C123U	-1.48
C3A C15G C72G G117C A119U	-0.76
C3G U7G G17C	-3.73
C3G G42A C56G U106C G113U A121U	-4.31
A2U C70U	-2.28
C3G A27G C53U C72G C79A C98G U116C	-6.51
C3A U32C G69A G120A	-3.63
C3A C73U C79G A119G C123A	0.0633
C3G G47U C64A A90C C104U G113A	-6.9
C3G C11A C115U	-6.42
A2U G36C C82U G113U G135U	-5.19
A2U C8U G45A A95G G120A	-0.217
C3A G110C	-5.4
C3A C11U G47A G63U G127C	-3.33
C3A G51A	-4.19

Variant	polymerase ribozyme fitness (log ratio)
A2U C64U C124U	-1.49
C3A A50U C80U G120U	-4.64
C3A U7G G10A C49G C104U G110C C124U	-4.49
C3G C62U G120C	-0.751
C3A G39A U54C C70U C104U	-2.33
C3G G110U	-2.82
A2U G77A	-2.8
C3A C12U A29G U87C G110A A118U U131G	-0.49
C3G C49G C72U A91C G128A U130G	-3.78
C3A G48A A84G	-1.29
C3A A29U G61A U130C	-1.93
A2U U106A G128U U131C	-1.21
A2U U7G C22A U33G C72U G120C	-7
C3A C53A G57A C70A A95C G117C	-5.27
C3G G48C	-2.83
A2U C76U	-1.64
C3U A50U G52U	-3.28
C3A U9G C98U	-1.51
C3A C72U	-1.75
A2U C49U G113C	-5.26
C3A U21A G120C	-1.39

Variant	polymerase ribozyme fitness (log ratio)
A2U C8A A100U	-1.86
C3G C8G G117A G120A G135U	-1.6
A2U G45A G69U C124A	-0.409
A2U C11U G63U C101G G113U C115U	-6.67
C3A C72A C88G U92G G127U	-2.7
C3A A111C	-1.17
C3U A46U C73A U87A	-0.663
C3A C53A C73U	-1.17
C3A U38G A103C A118G C123G	-6.41
C3A A37U C82U U112C	-0.239
A2U G71A	-2.72
C3A U133A	-1.44
A2U U106A U129C	-1.74
C3G C11G G19U G120A	-3.18
C3A G42U A46U C73A U112A	-2.77
C3G C4G G25U C28U C34U G71U G107U U112G C114A A121G	-6.59
A2U U59C	-2.87
C3G C62U G93U C98U G128C	-2.79
C3G A16U C40U C73A	-4.45
C3A C62U	-1.99
